Test [1] concerns the target T1, human GIPR (human), P48546.
T1 chain: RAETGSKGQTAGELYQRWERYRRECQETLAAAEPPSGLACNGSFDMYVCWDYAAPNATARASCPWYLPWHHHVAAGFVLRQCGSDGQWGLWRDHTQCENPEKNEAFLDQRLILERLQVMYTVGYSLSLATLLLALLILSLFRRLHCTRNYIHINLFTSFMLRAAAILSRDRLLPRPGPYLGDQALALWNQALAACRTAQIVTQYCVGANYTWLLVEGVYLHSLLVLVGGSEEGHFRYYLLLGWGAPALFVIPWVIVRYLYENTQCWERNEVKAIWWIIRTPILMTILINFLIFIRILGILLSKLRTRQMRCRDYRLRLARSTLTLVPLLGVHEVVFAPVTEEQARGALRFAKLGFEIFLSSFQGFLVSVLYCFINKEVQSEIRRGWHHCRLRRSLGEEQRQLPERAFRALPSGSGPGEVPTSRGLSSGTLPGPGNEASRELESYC

Test [2] concerns the target T2, human GLP-1R (human), P43220.
T2 chain: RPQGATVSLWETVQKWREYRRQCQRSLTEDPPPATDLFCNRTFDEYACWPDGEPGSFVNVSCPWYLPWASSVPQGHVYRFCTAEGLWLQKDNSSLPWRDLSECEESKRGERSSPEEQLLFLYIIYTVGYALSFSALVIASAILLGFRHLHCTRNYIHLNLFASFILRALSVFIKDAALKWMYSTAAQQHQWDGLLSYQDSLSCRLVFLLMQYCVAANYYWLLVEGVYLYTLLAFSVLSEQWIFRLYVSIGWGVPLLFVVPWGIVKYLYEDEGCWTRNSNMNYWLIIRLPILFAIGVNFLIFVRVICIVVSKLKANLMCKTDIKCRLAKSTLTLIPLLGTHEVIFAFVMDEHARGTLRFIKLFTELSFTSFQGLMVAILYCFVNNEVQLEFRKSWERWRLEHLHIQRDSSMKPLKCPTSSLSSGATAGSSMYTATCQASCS

Test [3] concerns the target T1, human GIPR (human), P48546. Briefly: [125I]GIP displacement, hGIPR VLP.

Starred links: 1 amine or outer side, 2 acyl side, 3 side chain; linkers in the order of their positions; H or OH if unused. Non-standard residues stand in square brackets, D forms with d. Groups on a side chain read outwards from the residue. Primed or numbered codes have the meaning given here. No end group written: not given here. *: point of attachment. C20 diacid = O=C(O)CCCCCCCCCCCCCCCCCCC(=O)*; γGlu = O=C(O)[C@H](CCC(=O)[*:2])N[*:1]; NMeY = CN[C@@H](Cc1ccc(O)cc1)C(=O)O; αMeF = C[C@](N)(Cc1ccccc1)C(=O)O; Lauroyl = CCCCCCCCCCCC(=O)*; dIva = CC[C@@](C)(N)C(=O)O; Iva = CC[C@](C)(N)C(=O)O; PEG2′ = not defined here; PEG3′ = not defined here; Aib = CC(C)(N)C(=O)O Some results are limits rather than exact numbers.

Agonist activity (EC50, M) and IC50 data for 24 molecules are collected here from patent US20180298070A1, “PEPTIDE COMPOUND” (Takeda Pharmaceutical Company Limited, published 2018).

As a reminder, the IC50 is the point on the concentration scale where inhibition reaches its midpoint. High values mean lower potency, low ones higher potency.

B1: Compound 224 (peptide)
peptide: Y[Aib]EGTFISDYSK([PEG(2)-Lauroyl])ALDR[Aib]HQQSFVNW[Iva]LAQRPSSGAPPPS
modifications: not fully specified (C-terminus); ends and bridges not checked
As to B1, the Agonist activity (EC50, M) is 4.2e-12 M in test [1] and > 1e-06 M in test [2].

B2: Compound 84 (peptide)
peptide: [NMeY][Aib]EGTFISDYSIALDR[Aib]AQ[Aib]NFVNW[Iva]LAQRPSSGAPPPSR
modifications: ends and bridges not checked
Regarding B2, in test [1], the Agonist activity (EC50, M) amounted to 1.2e-12 M. In addition, in test [3], the IC50 was 1.2 nM.

B3: Compound 213 (peptide)
peptide: Y[Aib]EGTFISDYSK([PEG2′-Lauroyl])ALDR[Aib]AQQD[αMeF]VNWLLAQRPSSGAPPPS
modifications: not fully specified (C-terminus); ends and bridges not checked
As for B3, the Agonist activity (EC50, M) in test [1] came to 3.1e-12 M; in test [2] it was 5.4e-08 M.

B4: Compound 208 (peptide)
peptide: Y[Aib]EGTFISDYSK([PEG(2)-Lauroyl])ALDRIHQQD[αMeF]VNWLLAQRPSSGAPPPS
modifications: ends and bridges not checked
As for B4, the results for the Agonist activity (EC50, M) in test [1] and in test [2] were 6.1e-12 M and > 1e-06 M, respectively.

B5: Compound 202 (peptide)
peptide: Y[Aib]EGTFISDYSK([PEG(2)-Lauroyl])ALDRIAQQD[αMeF]VNWLLAQRPSSGAPPPS
modifications: ends and bridges not checked
Regarding B5, the figures for the Agonist activity (EC50, M) in test [1] and in test [2] were 4.6e-12 M and 1.8e-07 M, respectively.

B6: Compound 239 (peptide)
peptide: Y[Aib]EGTFISDYSIALDRK([PEG(2)-dodec])HQ[Aib]NFVNW[Iva]LAQRPSSGAPPPS
modifications: not fully specified (C-terminus); ends and bridges not checked
Regarding B6, the values for the Agonist activity (EC50, M) in test [1] and in test [2] were 2.5e-12 M and 5e-08 M, respectively.

B7: Compound 192 (peptide)
peptide: Y[Aib]EGTFISDYSK([PEG(2)-Lauroyl])ALDRIAQQDFVNWLLAQRPSSGAPPPS
modifications: ends and bridges not checked
For the molecule B7, the Agonist activity (EC50, M) was determined as 6.5e-12 M in test [1] and 1.5e-08 M in test [2].

B8: Compound 233 (peptide)
peptide: Y[Aib]EGTFISDYSIALDRK([PEG(2)-Pal])HQQDFVNWLLAQRPSSGAPPPS
modifications: not fully specified (C-terminus); ends and bridges not checked
As to B8, the Agonist activity (EC50, M) was 3.8e-12 M in test [1] and > 1e-06 M in test [2].

B9: Compound 124 (peptide)
peptide: [NMeY][Aib]EGTFISDYSIALDRIAQ[Aib]SFVNW[Iva]LAQRPSSGAPPPSR
modifications: not fully specified (N-terminus, C-terminus); ends and bridges not checked
B9: the values for the Agonist activity (EC50, M) in test [1] and in test [2] were 1.7e-12 M and > 1e-06 M, respectively. Further, the IC50 in test [3] came to 1.6 nM.

B10: Compound 242 (peptide)
peptide: Y[Aib]EGTFISDYSK([PEG3′-PEG3′-γGlu-C20 diacid])ALDR[Aib]HQ[Aib]NFVNW[Iva]LAQRPSSGAPPPS
modifications: not fully specified (C-terminus); ends and bridges not checked
On to B10, for which the Agonist activity (EC50, M) was 6.7e-11 M in test [1] and > 1e-06 M in test [2].

B11: Compound 137 (peptide)
peptide: Me-Y[Aib]EGTFISDYSIALDR[Aib]AQQSFVNWLLAQRPSSGAPPPSR
modifications: not fully specified (residue 1, C-terminus); ends and bridges not checked
Take B11: the Agonist activity (EC50, M) in test [1] is 1.7e-12 M; in test [2] it was > 1e-06 M. The molecule further returned an IC50 in test [3] of 0.98 nM.

B12: Compound 211 (peptide)
peptide: Y[Aib]EGTFISDYSK([PEG2′-Lauroyl])ALDR[Aib]AQ[Aib]NFVNW[Iva]LAQRPSSGAPPPS
modifications: not fully specified (C-terminus); ends and bridges not checked
Take B12: the Agonist activity (EC50, M) is 3.4e-12 M in test [1] and 2.6e-08 M in test [2].

B13: Compound 216 (peptide)
peptide: Y[Aib]EGTFISDYSK([PEG2′-Lauroyl])ALDRIHQ[Aib]N[αMeF]VNW[Iva]LAQRPSSGAPPPS
modifications: not fully specified (C-terminus); ends and bridges not checked
With B13, the Agonist activity (EC50, M) in test [1] turned out to be 4.8e-12 M; in test [2] it was 1.5e-07 M.

B14: Compound 136 (peptide)
peptide: Me-Y[Aib]EGTFISDYSIALDRIAQ[Aib]SFVNWLLAQRPSSGAPPPSR
modifications: not fully specified (residue 1, C-terminus); ends and bridges not checked
Turning to B14, the figures for the Agonist activity (EC50, M) in test [1] and in test [2] were 2.2e-12 M and 2.1e-07 M, respectively. The IC50 in test [3] stood at 2.1 nM.

B15: Compound 198 (peptide)
peptide: Y[Aib]EGTFISDYSK([PEG(2)-Lauroyl])ALDR[Aib]AQQDFVNWLLAQRPSSGAPPPSR
modifications: ends and bridges not checked
In the case of B15, the results for the Agonist activity (EC50, M) in test [1] and in test [2] were 4.5e-12 M and 2.8e-08 M, respectively.

B16: Compound 206 (peptide)
peptide: Y[Aib]EGTFISDYSK([PEG(2)-Lauroyl])[dIva]LDRIAQQDFVNWLLAQRPSSGAPPPS
modifications: ends and bridges not checked
As to B16, the Agonist activity (EC50, M) in test [1] was 2.1e-11 M; in test [2], > 1e-06 M.

B17: Compound 106 (peptide)
peptide: [NMeY][Aib]EGTFISDYSI[dIva]LDR[Aib]AQ[Aib]N[αMeF]VNWLLAQRPSSGAPPPSR
modifications: not fully specified (N-terminus, C-terminus); ends and bridges not checked
Consider B17, for which the values for the Agonist activity (EC50, M) in test [1] and in test [2] were 1.7e-12 M and > 1e-06 M, respectively. Also, the IC50 in test [3] turned out to be 1.6 nM.

B18: Compound 209 (peptide)
peptide: Y[Aib]EGTFISDYSK([PEG(2)-Lauroyl])ALDRIHQ[Aib]NFVNWLLAQRPSSGAPPPS
modifications: ends and bridges not checked
In the case of B18, the figures for the Agonist activity (EC50, M) in test [1] and in test [2] were 4.3e-12 M and > 1e-06 M, respectively.

B19: Compound 161 (peptide)
peptide: Y[Aib]EGTVVSLYSI[Aib]LDKQAQ[Aib]EFVKWLLAQKK(Pal)
modifications: ends and bridges not checked
Regarding B19, the Agonist activity (EC50, M) in test [2] is > 1e-06 M. Also, the IC50 in test [3] was found to be 24 nM.

B20: Compound 99 (peptide)
peptide: [NMeY][Aib]EGTFISDYSI[dIva]LDRIAQ[Aib]N[αMeF]VNWLLAQRPSSGAPPPSR
modifications: ends and bridges not checked
Regarding B20, the results for the Agonist activity (EC50, M) in test [1] and in test [2] were 2.9e-12 M and > 1e-06 M, respectively. Besides, the IC50 in test [3] stood at 2.1 nM.

B21: Compound 158 (peptide)
peptide: Y[Aib]EGTVVSLYSK([PEG(2)-Pal])[Aib]LDKQAQ[Aib]EFVKWLLAQK
modifications: ends and bridges not checked
In the case of B21, the results for the Agonist activity (EC50, M) in test [1] and in test [2] were 9.9e-11 M and > 1e-06 M, respectively. In test [3], this molecule registered an IC50 of 3.4 nM.

B22: Compound 260 (peptide)
peptide: Y[Aib]EGTVVSLYSK([Gly-Gly-Gly-Gly-C20 diacid])[Aib]LDRQAQ[Aib]EFVK(Ac)WLLAQR
modifications: ends and bridges not checked
For the molecule B22, the Agonist activity (EC50, M) is 2.6e-10 M in test [1] and > 1e-06 M in test [2]. In test [3], the IC50 is 15 nM.

B23: Compound 152 (peptide)
peptide: Ac-Y[Aib]EGTFISDYSI[dIva]LDRIAQ[Aib]NFVNW[Iva]LAQRPSSGAPPPSR
modifications: ends and bridges not checked
On to B23, for which the results for the Agonist activity (EC50, M) in test [1] and in test [2] were 2.8e-12 M and > 1e-06 M, respectively. Further, the 50% inhibitory concentration (IC50) in test [3] is 2.1 nM.

B24: Compound 134 (peptide)
peptide: Me-Y[Aib]EGTFISDYSIALDRIAQQN[αMeF]VNWLLAQRPSSGAPPPSR
modifications: not fully specified (residue 1, C-terminus); ends and bridges not checked
Turning to B24, the Agonist activity (EC50, M) in test [1] is 2.3e-12 M; in test [2], > 1e-06 M. Moreover, the IC50 in test [3] is 1.2 nM.
